Source: patent US20250355001A1, “METHOD FOR DETECTING A TAU PROTEIN FRAGMENT IN A SAMPLE” (GTINVENT LIMITED, priority 2022, published 2025)

What was measured:
[1] = tested on: hT40, dGA, dGAE and truncated tau fragments; experiment: Binding ELISA / epitope mapping of anti-tau scAbs with truncated tau proteins and 13mer peptides; parameters: species or system human; conditions: for Tau proteins/fragments with positive scAb reactivity: binding ELISA; for Shortest region bound on hT40: incl. 13mer peptides
Summary of the method: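 Serially double-diluted scAbs were applied to 2% MPBS-blocked wells carrying either 1 μg/ml full-length or truncated tau, or biotinylated 13mer peptides (1 μg/ml) captured on 5 μg/ml streptavidin. Absorbance after HRP anti-human C kappa secondary gave the binding signal.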

[2] = target: T1, hT40 (T441, SEQ ID NO: 1) (Homo sapiens, UniProt P10636); experiment: Biacore X100 SPR kinetics of scAbs for hT40; type: binding; conditions: Table 23; scAb captured, T441 (hT40) analyte; 1:1 model
T1 construct: Full length tau (hT40)
Procedure: Surface plasmon resonance (SPR) is widely regarded as the gold standard for real time measurement of protein-protein interactions such as antibody binding. All SPR experiments were carried out using a Biacore X100 machine and HBS EP+ running buffer (GE Healthcare). A ‘capture’ method was followed for affinity measurements, where an anti-human constant kappa chain (HuCk) antibody was conjugated to the surface of a CM5 sensor chip using an amine coupling kit and scAb molecules were immobilised via their HuCk domain. Amine coupling is a very common approach for immobilising the ligand to the chip surface. […] The capture antibody was diluted 1/100 in 10 mM Sodium acetate buffer pH 5.0 and passed over the activated chip surface for a period of at least 420 s. Final ligand immobilisation levels over 12,000 RU were deemed to be satisfactory.
(§1) Following immobilisation, the level of each scAb to be captured was identified using the standard SPR equation with a theoretical RMax of 100 RU. Analyte MW refers to the molecular weight of hT40 or dGA/dGAE molecules, while ligand MW refers to the molecular weight of the scAbs tested. RL is the desired capture level and S refers to the stoichiometric ratio:
The scAb to be tested was added only to flow cell 2 so that flow cell 1 could act as a control to subtract any interaction with the analyte and the chip surface. Both single and multi-cycle runs were utilised using wizards developed in the Biacore X100 control software which are both accepted methods of kinetic analysis (Karlsson, R., et al. Analyzing a kinetic titration series using affinity biosensors (2006) Analytical Biochemistry 349:136-47). The multi-cycle protocol was as follows-Three start-up cycles composed of an initial capture, to the desired level, of the scAb to be tested was performed followed by a 30 s injection of glycine buffer pH 2.0 after each cycle to regenerate the chip surface. […] Following three start-up cycles increasing concentrations (0.15625 nM-100 nM) of the target to be tested were added to the chip surface after the desired scAb capture. The target was added for a 120 s association period and 420 s dissociation period followed by another regeneration, 30 s injection of glycine buffer pH 2.0 in between each cycle.
(§2) The single cycle kinetics protocol was similar and utilised the same level of scAb capture. Three start-up cycles were used followed by 5 increasing concentrations of the analyte (6.25 nM-100 nM) for an association period of 120 s followed by a dissociation period of 420 s for each concentration. In single cycle kinetics the regeneration step was performed only after the final analyte concentration was added. Binding responses were analysed in Biacore X100 evaluation software and data fitted to a 1:1 binding model to obtain kinetic and affinity characterisation.

dGA (SEQ ID NO: 5) = dGA (SEQ ID NO: 5) (Homo sapiens, UniProt P10636); experiment: Biacore X100 SPR kinetics of scAbs for dGA; type: binding; conditions: Table 24, scAb, dGA analyte; for Kd: dissociation rate
Procedure: Surface plasmon resonance (SPR) is widely regarded as the gold standard for real time measurement of protein-protein interactions such as antibody binding. All SPR experiments were carried out using a Biacore X100 machine and HBS EP+ running buffer (GE Healthcare). A ‘capture’ method was followed for affinity measurements, where an anti-human constant kappa chain (HuCk) antibody was conjugated to the surface of a CM5 sensor chip using an amine coupling kit and scAb molecules were immobilised via their HuCk domain. Amine coupling is a very common approach for immobilising the ligand to the chip surface. The chip surface has a dextran matrix derivatised with carboxyl groups, which after activation with N-hydroxysuccinimide (NHS) and 1-ethyl-3-(3-dimethylaminopropyl) carbodiimide (EDC), form reactive succinimide esters which allows the covalent capturing of the ligand via any available primary amine groups (e.g. Lysine) on the ligand (in this case anti-HuCk antibody). The capture antibody was diluted 1/100 in 10 mM Sodium acetate buffer pH 5.0 and passed over the activated chip surface for a period of at least 420 s. Final ligand immobilisation levels over 12,000 RU were deemed to be satisfactory.
as §1
The scAb to be tested was added only to flow cell 2 so that flow cell 1 could act as a control to subtract any interaction with the analyte and the chip surface. Both single and multi-cycle runs were utilised using wizards developed in the Biacore X100 control software which are both accepted methods of kinetic analysis (Karlsson, R., et al. Analyzing a kinetic titration series using affinity biosensors (2006) Analytical Biochemistry 349:136-47). The multi-cycle protocol was as follows-Three start-up cycles composed of an initial capture, to the desired level, of the scAb to be tested was performed followed by a 30 s injection of glycine buffer pH 2.0 after each cycle to regenerate the chip surface. The regeneration step removed any captured scAb whilst leaving the capture antibody intact and able to repeat the capture for the next cycle. Following three start-up cycles increasing concentrations (0.15625 nM-100 nM) of the target to be tested were added to the chip surface after the desired scAb capture. The target was added for a 120 s association period and 420 s dissociation period followed by another regeneration, 30 s injection of glycine buffer pH 2.0 in between each cycle.
as §2

htau40 = target: T2, htau40 (Homo sapiens, UniProt P10636); experiment: Biacore X100 SPR kinetics of anti-tau mAbs on immobilised htau40; type: binding; conditions: Table 27; mAb format, immobilised htau40
T2 construct: Full length tau (hT40)
Procedure: For anti-tau mAb SPR measurements, htau40 was conjugated to the surface of a CM5 sensor chip using amine coupling as explained previously. Briefly, 2 μg/mL htau40 in 10 mM Sodium acetate buffer (pH 4.0) was passed over the activated chip surface (EDC/NHS) in flow cell 2 for a period for 45 s followed by blocking with 1 M ethanolamine-HCl PH 8.5. Flow cell 1 was set up as reference control and blocked simultaneously. Final immobilisation level of htau40 (Rmax) was approximately 250 RU. Following a minimum of three start-up cycles, increasing concentrations (0.78 nM-25 nM) of the mAb in HBS-EP+ buffer was added at a rate of […] to the chip. The mAb was added for a 120 s association period and 600 s dissociation period followed by a regeneration cycle of 30 s injection of glycine buffer pH 1.5 in between each cycle. Binding responses were analysed in Biacore X100 evaluation software and data fitted to a 1:1 binding model to obtain kinetic and affinity characterisation.
For anti-tau mAb SPR measurements (Biacore X100™) and epitope mapping, the same methodologies described above (see Example 16) were followed. Kinetic rates and equilibrium binding constants of additional anti-tau mAbs and the regions recognised on hT40 are given in the Table 25 below

dGAE aggregates = dGAE aggregates (Homo sapiens, UniProt P10636); experiment: Epitope occlusion assay: dGAE aggregation with/without LMTM, 423 mAb capture ELISA; type: biochemical; conditions: total and supernatant samples; 423 mAb capture
Procedure: During dGAE aggregation in vitro, scAb binding regions on dGA/dGAE are ‘hidden’ or ‘occluded’ which leads to a loss of immunoreactivity in aggregation samples. Here we have shown the occlusion of binding regions in aggregated dGAE samples and the recovery of immunoreactivity in the presence of LMTM, a tau-aggregation inhibitor. For preparing the aggregates, 10 μl 10 mM DTT was added to 1000 μl 100 μM dGAE and agitated with/without LMTM (1:5 ratio) at 700 rpm for 24 h at 37° C. Following overnight agitation, one third of each sample was kept aside as ‘total’ and the rest was spun down at 16000×g for 30 min and separated into ‘supernatant’ and ‘pellet’. The pellet was then resuspended in half the original volume for further experiments. […] Doubling dilutions of dGAE aggregate ‘total’, ‘supernatant’ and ‘pellet’ samples at 10 μg/ml starting concentration were added to designated wells in doubling dilutions in 1×PBS. dGAE monomer (non-aggregated) was included as assay control. All double dilutions were done in final volumes of 100 μl. This was left to incubate on lab bench for 1 h followed by the addition of test scAbs at 10 μg/ml. Anti-HuCk HRP labelled secondary antibody was added as described previously and ELISA data generated is represented using the graph below.

[3] = Table 26 summary, top scAbs, residues of hT40
[4] = residue numbers of SEQ ID NO: 1 (hT40), CDR Tables 1-11

dGA (SEQ ID NO: 5), sequence (P10636 614-707): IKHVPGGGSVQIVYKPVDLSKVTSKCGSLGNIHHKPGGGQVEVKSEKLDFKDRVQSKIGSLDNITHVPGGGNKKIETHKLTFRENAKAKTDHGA
T2 sequence (P10636 1-441 isoform P10636-8): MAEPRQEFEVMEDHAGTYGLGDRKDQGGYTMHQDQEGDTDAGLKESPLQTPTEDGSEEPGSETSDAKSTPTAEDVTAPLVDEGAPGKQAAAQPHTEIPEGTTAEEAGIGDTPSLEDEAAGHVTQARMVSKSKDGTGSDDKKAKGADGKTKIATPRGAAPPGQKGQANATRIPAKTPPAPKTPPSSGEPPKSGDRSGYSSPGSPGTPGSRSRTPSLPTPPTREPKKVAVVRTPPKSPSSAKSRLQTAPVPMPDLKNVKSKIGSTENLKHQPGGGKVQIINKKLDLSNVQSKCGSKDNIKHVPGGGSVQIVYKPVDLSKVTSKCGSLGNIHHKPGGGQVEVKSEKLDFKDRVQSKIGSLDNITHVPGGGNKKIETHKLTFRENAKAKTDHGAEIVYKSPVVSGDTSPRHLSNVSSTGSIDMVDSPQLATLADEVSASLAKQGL
T1 sequence (P10636 1-441 isoform P10636-8): as above
dGAE aggregates, sequence (P10636 614-708): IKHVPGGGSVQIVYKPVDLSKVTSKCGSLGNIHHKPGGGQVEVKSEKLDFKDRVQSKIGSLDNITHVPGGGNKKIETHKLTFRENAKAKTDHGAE

B1: NS2A1: anti-tau clone, Table 11; SEQ ID NO: 220 (protein)
scFv: QVQLQESGPSLVKPSQTLSLTCTVSGFSLSTNSVGWVRQAPGKAPEWVAGIDTDGEEGFNPVLKSRLSITRDTSKSQVSLSLSNVTSEDTAVYYCGRSYRTDGLAYGYVQAIDYWGPGLLVTISSEGKSSGASGESKVDDQSVLTQPSSVSGSPGQTVSITCSGSYIGSSGVGWFQQLPGSGLRTIIVASDGRPSGVPDGFSMSKSGNTATLTISSLQAEDEADYFCGSSDRTQYTGLFGSGTRLTVLG
modifications: NS2A1 amino acid sequence
How did the “Tau proteins/fragments with positive scAb reactivity” value ([1]; Table 16, NS, S and M clones) turn out when B1 was run?
Its value is “hT40, 297-390 (dGA), 297-391 (dGAE)”.

And the Epitope [1, 3]?
The Epitope was 297-390.

And the Epitope [1, 4]?
Its Epitope is 297-390.

And the “ka” value [2]?
Its value is 252100 M⁻¹ s⁻¹.

What about the “kd” value [2] of the same molecule?
The value was 0.0007393 s⁻¹.

What about the “ka” value (dGA (SEQ ID NO: 5)) of the same molecule?
Its value is 188000 M⁻¹ s⁻¹.

And the “Kd” value (dGA (SEQ ID NO: 5))?
Its value is 0.00102 s⁻¹.

And the “ka” value (htau40)?
The value was 893700 M⁻¹ s⁻¹.

And the “kd” value (htau40)?
Its value is 0.002621 s⁻¹.

B2: S1E12: anti-tau clone, Table 11; SEQ ID NO: 218 (protein)
scFv: QVQLQESGPSLVKPSQTLSLTCTVSGFSLGSNSVGWVRQAPGKAPEWVAGIDTDGEEGYNPALNSRLSITRDTSKSQVSLSLSSVTSEDTAVYYCGRSYRADGLAYGYVQAIDYWGPGLLVTVSSEGKSSGASGESKVDDRVVRTQPSSVSGSLGQRVSITCSGSFIGISSVGWFQQLPGSGLRTIIVASDGRPSGVPDRFSMSKSGNTATLTISSLQAEDEADYFCGSSDRTQYTGVFGSGTRLTVLG
modifications: S1E12 amino acid sequence
What does the source list for B2?
Tau proteins/fragments with positive scAb reactivity ([1]; Table 16, NS, S and M clones): hT40, 297-390 (dGA), 297-391 (dGAE); Shortest region bound on hT40 ([1]; Table 16, NS, S and M clones): 297-390; Epitope [1, 3]: 297-390; Epitope [1, 4]: 297-390; ka [2]: 385000 M⁻¹ s⁻¹; kd [2]: 0.000319 s⁻¹; ka (dGA (SEQ ID NO: 5)): 2.99e+06 M⁻¹ s⁻¹; Kd (dGA (SEQ ID NO: 5)): 0.001627 s⁻¹

B3: CE3: anti-tau core clone, Table 10; SEQ ID NO: 367 (protein)
scFv: QVRLQESGPSLVKPSQTLSVTCTVSGFSLISNAVGWVRQAPGKVPESLAGCSSDGKCYYNSALKSRLDITRDTSKNQISLSLSSVTTDDAAVYYCTRGYYPVYGYDYLGTIDYWGPGLLVTVSSEGKSSGASGESKVDDQAVLTQPSSVSGSLGQRVSITCSGSSSNVGRNDVAWFQQLPGSGLRTIIYGTTSRPSGIPDRFSGSKSGVTATLTIDSLQAEDEADYFCASGDSSAINDIFGSGTRLTVLG
modifications: CE3 amino acid sequence
What does the source list for B3?
Tau proteins/fragments with positive scAb reactivity ([1]; Table 17, 'C' group scAbs): hT40, 266-359 (R1-3); Shortest region bound on hT40 ([1]; Table 17, 'C' group scAbs): 331-360; Epitope [1, 3]: 331-360; Epitope [1, 4]: 331-360; ka [2]: 174500 M⁻¹ s⁻¹; kd [2]: 0.000662 s⁻¹; immunoreactivity to dGAE aggregation samples prepared in the presence of LMTM (dGAE aggregates): increase in immunoreactivity; ka (htau40): 103000 M⁻¹ s⁻¹; kd (htau40): 0.001718 s⁻¹

B4: CB3: anti-tau core clone, Table 10; SEQ ID NO: 370 (protein)
scFv: QVQLQESGPSLVKPSQTLSLTCTVSGFSLSSVAVNWVRQAPGKVPEWLGGIISNGGTGYNPALKSRLSITRDTSKSQVSLALTHVTTEDTAVYYCGRGVEWEGSMDYLGPGLLVTVSSEGKSSGSGSETKVDDQSVLTQPSSVSGFLGQRVTITCSGSSSNVGAGSYVGWYQQVPGSGLRILIYGATKRASGLPDRFSGSRSGNTATLTISSLQAEDEADYYCVSYQTDFTLVFGSGTRLTVLG
modifications: CB3 amino acid sequence
Which “Tau proteins/fragments with positive scAb reactivity” value ([1]; Table 17, 'C' group scAbs) does the source give for B4 here?
Its value is “hT40, 297-390 (dGA)”.

What about the “Shortest region bound on hT40” value ([1]; Table 17, 'C' group scAbs) of the same molecule?
The value was 360-390.

And the Epitope [1, 4]?
Its Epitope is 360-390.

What about the “immunoreactivity to dGAE aggregation samples prepared in the presence of LMTM” value (dGAE aggregates) of the same molecule?
Its value is “increase in immunoreactivity”.
